Assays:
Assay type in all cases: biochemical, Z. mays
[1] = tested on: 4-hydroxyphenylpyruvate dioxygenase (HPPD); assay: ON rate ratio: HPPD reaction rate with vs without inhibitor in the 70 to 90 second interval; settings: Table 7; tembotrione; combinatorial variants
Text: (§1) Higher KD (reduced affinity or increased insensitivity) can be attained with a numerically smaller ON rate, a larger OFF rate or both. To detect and quantify changes in kON and kOFF, observations of the time course of an HPPD reaction as inhibitor binds to and inactivates the enzyme (kON), or is released from a pre-formed enzyme-inhibitor complex (kOFF) were used, as shown in FIGS. 13A and 13B. In practice, a quantitative indicator of kON was obtained by monitoring the time courses of HPPD reactions containing 60 or 120 nM HPPD and 100 μM HPP in the presence and absence of 4 μM inhibitor (e.g., mesotrione or tembotrione). The ratio of the reaction rate with inhibitor to that without inhibitor during the 70 to 90 second interval of the reaction was termed the “ON rate ratio”. The smaller the actual kON, the more slowly the HPPD reaction decelerates and the higher the value is for the ON rate ratio. FIGS. 13A and 13B illustrate the contrasting reaction velocity in the 70-90 sec interval for maize wild-type HPPD (FIG. 13A) versus an improved variant (SEQ ID NO:78) (FIG. 13B).

[2] = tested on: 4-hydroxyphenylpyruvate dioxygenase (HPPD); assay: OFF rate ratio: release of inhibitor from pre-formed enzyme-inhibitor complex; settings: Table 7; tembotrione; combinatorial variants
Procedure: A quantitative indicator of kOFF can be obtained by observing the time course of an HPPD reaction as inhibitor is released from a pre-formed enzyme-inhibitor complex. HPPD and inhibitor were incubated together at concentrations of 7.2 and 8 μM, respectively. Incubations with the same concentrations of enzyme but no inhibitor were done in parallel. After 1 hr at room temperature, 5 to 10 μl of the enzyme-inhibitor complex was dispensed into the wells of the assay plate. Reactions were started with the addition of 290 to 295 μl of 25 mM Hepes, pH 7, 2 mM ascorbate, 10 μM FeSO4, 100 μM HPP and 50 nM HGD. The reactions were monitored at 320 nm for 12 min. Reaction velocity accelerates as inhibitor is released from the enzyme until a steady state is reached, during which the reaction velocity is constant. The ratio of the steady state rate in mixtures containing herbicidal inhibitor to the initial velocity of mixtures lacking inhibitor is termed the “OFF rate ratio”.
Another parameter to record is the time span required for the reactions with inhibitor to reach the steady state. FIGS. 13C and 13D illustrate the contrasting time span in which maize wild-type HPPD (FIG. 13C) and an improved variant (SEQ ID NO:78) (FIG. 13D) dissociated from mesotrione, as indicated by the accelerating reaction rates. The plateau of absorbance is due to exhaustion of the substrate. With the improved variant, not only was the steady state attained in a shorter time span (80 sec for the variant versus 280 sec for wild type), the velocity attained was twice as high as with wild type, though the enzymes were present at the same concentration (240 nM). This is because a larger fraction of the variant enzyme is free of inhibitor compared to the wild-type enzyme, and the kcat for both is nearly the same, about 220 min^−1.

[3] = tested on: 4-hydroxyphenylpyruvate dioxygenase (HPPD); assay: Insensitivity parameter (ON × OFF) and trait fitness (ON × OFF × kcat/KM or × kcat); set-up: key to ON × OFF / Insensitivity, mesotrione, ON × OFF / Insensitivity, tembotrione, ON × OFF / Insensitivity, topramezone, ON × OFF / Insensitivity, sulcotrione, ON × OFF / Insensitivity, isoxaflutole (DKN), ON × OFF: insensitivity = ON rate ratio × OFF rate ratio (surrogate for KD)
Text: Because substrate and inhibitors bind in the same site, the high concentration of substrate present may competitively trap the inhibitor and prevent it from binding again. To be sure that improvement in ON rates is being taken into account, the ON and OFF rate ratios were multiplied, creating an “insensitivity parameter” that is a surrogate for KD. KD is expressed as kOFF/kON, but because the ON rate ratio is an inverse parameter (the higher the value of ON rate ratio, the lower the value of the represented phenomenon, kON), it is appropriate to multiply ON and OFF rate ratios rather then divide OFF rate ratio by ON rate ratio. Another parameter, which quantifies the combined catalytic and insensitivity properties of the enzyme is kcat/KM×ON rate ratio×OFF rate ratio, and is termed “trait fitness”. This parameter is intended to have a meaning similar to the commonly used expression kcat/KM×Ki.

[4] = tested on: 4-hydroxyphenylpyruvate dioxygenase (HPPD); assay: Estimate of kcat from initial rate at saturating hydroxyphenylpyruvate without inhibitor (ON rate ratio assay)
Text: as §1
Thirty nine variants were desensitized to tembotrione compared with the backbone enzyme, Round 7, variant 9070 (SEQ ID NO:2) and all were desensitized compared with maize wild type HPPD (SEQ ID NO:1). Because the assay for ON rate ratio includes an initial rate measurement at saturating hydroxyphenylpyruvate without inhibitor and with known enzyme concentration, an estimate of kcat was available. Taking into account kcat and insensitivity parameters, 30 variants were selected for measurement of substrate saturation kinetic parameters and re-evaluation of insensitivity to tembotrione. The kinetic and insensitivity parameters were determined as described in Example 1, and were multiplied to generate the “trait fitness” parameter. The complete list of variants, i.e., of selected single substitutions in SEQ ID NO:2, analyzed with multiple inhibitors and the results obtained are shown in Table 6. The same set of 30 variants were evaluated for insensitivity to mesotrione, sulcotrione, isoxaflutole (its active diketonitrile form, abbreviated DKN in Table 6) and topramezone.

[5] = Table 7, tembotrione, combinatorial variants
[6] = Table 7, combinatorial variants

| ON rate ratio [1] | OFF rate ratio [2] | ON × OFF ([3]; Megatable 3, shuffled variants) | ON × OFF [3, 5] | Molecule | ON × OFF × kcat ([3]; Megatable 3, shuffled variants) | ON × OFF × kcat [3, 5] | kcat ([4]; Megatable 3, shuffled variants) | kcat [4, 6] |
| --- | --- | --- | --- | --- | --- | --- | --- | --- |
| 0.788 | 0.389 | 0.307 | 0.307 | P056028-B-07 (protein, Zea mays variant form created by artificial means.) MGPTPTATAAGAAVAAASAAEQAAFRLVGHRNFVRFNPRSDRFQTLAFHHVELWCADAASAAGRFSFALGVPLAARSDLSTGNSAHASLLLRSGSLSLLFTAPYAHGADAATAALPSFSAAAARRFAADHGLAVRAVALRVADAEDAFRASVAAGARPAFGPVDLGRGFRLAEVELYGDVVLRYVSYPDGAAGEPFLPGFEGVASQGAADYGLSRFDHIVGNVPELAPAAAYMAGFTGFHEFAEFTTEDVGTTESGLNSMALANNSENVLLPLNEPVHGTKRRSQIQTFLDHHGGPGVQHIALASDDVLRTLREMRARSAMGGFEFLPPPLSDYYDGVRRCAGDVLTEAQINECQELGVMVDRDDEGVLLQIFTKPVGDRPTFFIELIQRIGCMEKDEKGQEYQKGGCGGFGKGNFGQLFKSIEDYEKSLEAKQAAAAATAQGS | 2.83 | 2.83 | 0.153 s⁻¹ | 0.153 s⁻¹ |
| 0.731 | 0.293 | 0.214 | 0.214 | P056028-C-11 (protein, Zea mays variant form created by artificial means.) MGPTPTATAAGAAVAAASAAEQAAFRLVGHRNFVRFNPRSDRFQTLAFHHVELWCADAASAAGRFSFALGVPLAARSDLSTGNSAHASLLLRSGSLSLLFTAPYAHGADAATAALPSFSAAAARRFAADHGLAVRAVALRVADAEDAFRASVAAGARPAFGPVDLGRGFRLAEVELYGDVVLRYVSYPDGAAGEPFLPGFEGVASPGAADLGLSRFDHIVGNVPELAPAAAYMAGFTGFHEFAEFTTEDVGTTESGLNSMALANNSENVLLPLNEPVHGTKRRSQIQTFLDHHGGPGVQHIALASDDVLRTLREMRARSAMGGFEFLPPPLSDYYDGVRKCAGDVLTEAQINECQELGVMVDRDDEGVLLQIFTKPVGDRPTFFLELIQRIGCMEKDEKGQEYQKGGCGGFGKGNFGQLFKSIEDYEKSLEAKQAAAAATAQGS | 2.64 | 2.64 | 0.205 s⁻¹ | 0.205 s⁻¹ |
| 0.717 | 0.379 | 0.272 | 0.272 | P056028-C-02 (protein, Zea mays variant form created by artificial means.) MGPTPTATAAGAAVAAASAAEQAAFRLVGHRNFVRFNPRSDRFQTLAFHHVELWCADAASAAGRFSFALGVPLAARSDLSTGNSAHASLLLRSGSLSLLFTAPYAHGADAATAALPSFSAAAARRFAADHGLAVRAVALRVADAEDAFRASVAAGARPAFGPVDLGRGFRLAEVELYGDVVLRYVSYPDGAAGEPFLPGFEGVASPGAADLGLSRFDHIVGNVPELAPAAAYMAGFTGFHEFAEFTTEDVGTTESGLNSMALANNSENVLLPLNEPVHGTKRRSQIQTFLDHHGGPGVQHIALASDDVLRTLREMRARSAMGGFEFLPPPLSDYYDGVRRCAGDVLTEAQINECQKLGVMVDRDDEGVLLQIFTKPVGDRPTFFLEIIQRIGCMEKDEKGQEYQKGGCGGFGKGNFGQLFKSIEDYEKSLEAKQAAAAATAQGS | 5.11 | 5.11 | 0.313 s⁻¹ | 0.313 s⁻¹ |
| 0.681 | 0.325 | 0.221 | 0.221 | P056028-B-08 (protein, Zea mays variant form created by artificial means.) MGPTPTATAAGAAVAAASAAEQAAFRLVGHRNFVRFNPRSDRFQTLAFHHVELWCADAASAAGRFSFALGVPLAARSDLSTGNSAHASLLLRSGSLSLLFTAPYAHGADAATAALPSFSAAAARRFAADHGLAVRAVALRVADAEDAFRASVAAGARPAFGPVDLGRGFRLAEVELYGDVVLRYVSYPDGAAGEPFLPGFEGVASPGAADYGLSRFDHIVGNVPELAPAAAYMAGFTGFHEFAEFTTEDVGTTESGLNSMALANNSENVLLPLNEPVHGTKRRSQIQTFLDHHGGPGVQHIALASDDVLRTLREMRARSAMGGFEFLPPPLSDYYDGVRKCAGDVLTEAQINECQELGVMVDRDDEGVLLQIFTKPVGDRPTFFLEIIQRIGCMEKDEKGQEYQKGGCGGFGKGNFGQLFKSIEDYEKSLEAKQAAAAATAQGS | 3.44 | 3.44 | 0.258 s⁻¹ | 0.258 s⁻¹ |
| 0.699 | 0.356 | 0.249 | 0.249 | P056028-C-10 (protein, Zea mays variant form created by artificial means.) MGPTPTATAAGAAVAAASAAEQAAFRLVGHRNFVRFNPRSDRFQTLAFHHVELWCADAASAAGRFSFALGVPLAARSDLSTGNSAHASLLLRSGSLSLLFTAPYAHGADAATAALPSFSAAAARRFAADHGLAVRAVALRVADAEDAFRASVAAGARPAFGPVDLGRGFRLAEVELYGDVVLRYVSYSDGAAGEPFLPGFEGVASPGAADYGLSRFDHIVGNVPELAPAAAYMAGFTGFHEFAEFTTEDVGTTESGLNSMALANNSENVLLPLNEPVHGTKRRSQIQTFLDHHGGPGVQHIALASDDVLRTLREMRARSAMGGFEFLPPPLSDYYDGVRKCAGDVLTEAQINECQELGVMVDRDDEGVLLQIFTKPVGDRPTFFLEIIQRIGCMEKDEKGQEYQKGGCGGFGKGNFGQLFKSIEDYEKSLEAKQAAAAATAQGS | 3.63 | 3.63 | 0.243 s⁻¹ | 0.243 s⁻¹ |
| 0.739 | 0.356 | 0.263 | 0.263 | P056028-C-03 (protein, Zea mays variant form created by artificial means.) MGPTPTATAAGAAVAAASAAEQAAFRLVGHRNFVRFNPRSDRFQTLAFHHVELWCADAASAAGRFSYALGVPLAARSDLSTGNSAHASLLLRSGSLSLLFTAPYAHGADAATAALPSFSAAAARRFAADHGLAVRAVALRVADAEDAFRASVAAGARPAFGPVDLGRGFRLAEVELYGDVVLRYVSYPDGAAGEPFLPGFEGVASPGAADYGLSRFDHIVGNVPELAPAAAYMAGFTGFHEFAEFTTEDVGTTESGLNSMALANNSENVLLPLNEPVHGTKRRSQIQTFLDHHGGPGVQHIALASDDVLRTLREMRARSAMGGFEFLPPPLSDYYDGVRKCAGDVLTEAQINECQELGVMVDRDDEGVLLQIFTKPVGDRPTFFIELIQRIGCMEKDEKGQEYQKGGCGGFGKGNFGQLFKSIEDYEKSLEAKQAAAAATAQGS | 3.62 | 3.62 | 0.228 s⁻¹ | 0.228 s⁻¹ |
